Several values for one entry are separate records, joined by “and”; a condition that tells them apart may be missing. Equal values may be shown once. Read-outs that look alike come from different tables or passages of the source.
Legend:
[1] = target: T1, HIV gp160 envelope glycoprotein on pseudotyped virus (clone not named) (HIV); experiment: cell-based or functional assay
[2] = target: T1, HIV gp160 envelope glycoprotein on …; experiment: cell-based or functional assay; remark: listed apart in the source

B1: VRC01-SA antibody-drug conjugate (antibody, human IgG1, V domains shown)
VH: QVQLVQSGGQMKKPGESMRISCRASGYEFIDCTLNWIRLAPGKRPEWMGWLKPRGGAVNYARPLQGRVTMTRDVYSDTAFLELRSLTVDDTAVYFCTRGKNCDYNWDFEHWGRGTPVIVSS
VL: EIVLTQSPGTLSLSPGETAIISCRTSQYGSLAWYQQRPGQAPRLVIYSGSTRAAGIPDRFSGSRWGPDYNLTISNLESGDFGVYYCQQYEFFGQGTKVQVDI
modifications: payload-linker SA conjugated to lysines; sites and chain not stated; payload-linker SA (short linker payload A, succinimidyl ester) conjugated to lysines; sites and chain not stated; MS DAR 3.0
[1]
  IC50 (N = 1), pseudotyped virus (PSV) infection, luciferase: ~2.7 nM and 0.418 µg/mL
  IC50 (N = 2), pseudotyped virus (PSV) infection, luciferase: 0.226 µg/mL and ~1.5 nM

B2: VRC01-LA-LB dual-payload antibody-drug conjugate (antibody, human IgG1, V domains shown)
VH: QVQLVQSGGQMKKPGESMRISCRASGYEFIDCTLNWIRLAPGKRPEWMGWLKPRGGAVNYARPLQGRVTMTRDVYSDTAFLELRSLTVDDTAVYFCTRGKNCDYNWDFEHWGRGTPVIVSS
VL: EIVLTQSPGTLSLSPGETAIISCRTSQYGSLAWYQQRPGQAPRLVIYSGSTRAAGIPDRFSGSRWGPDYNLTISNLESGDFGVYYCQQYEFFGQGTKVQVDI
modifications: payload-linkers LA and LB conjugated to lysines; sites and chain not stated; payload-linkers LA and LB conjugated to lysines; sites and chain not stated; MS DAR 1.6 (LA) and 1.2 (LB)
[2]
  IC50 (N = 1), pseudotyped virus (PSV) infection, luciferase: 0.154 µg/mL
  IC50 (N = 2), pseudotyped virus (PSV) infection, luciferase: 0.107 µg/mL and ~0.7 nM

B3: VRC01-LA-SB dual-payload antibody-drug conjugate (antibody, human IgG1, V domains shown)
VH: QVQLVQSGGQMKKPGESMRISCRASGYEFIDCTLNWIRLAPGKRPEWMGWLKPRGGAVNYARPLQGRVTMTRDVYSDTAFLELRSLTVDDTAVYFCTRGKNCDYNWDFEHWGRGTPVIVSS
VL: EIVLTQSPGTLSLSPGETAIISCRTSQYGSLAWYQQRPGQAPRLVIYSGSTRAAGIPDRFSGSRWGPDYNLTISNLESGDFGVYYCQQYEFFGQGTKVQVDI
modifications: payload-linkers LA and SB conjugated to lysines; sites and chain not stated; payload-linkers LA and SB conjugated to lysines; sites and chain not stated; MS DAR 1.6 (LA) and 1.3
[2]
  IC50 (N = 1), pseudotyped virus (PSV) infection, luciferase: 0.104 µg/mL and ~0.7 nM
  IC50 (N = 2), pseudotyped virus (PSV) infection, luciferase: 0.106 µg/mL and ~0.7 nM

B4: VRC01-LB antibody-drug conjugate (antibody, human IgG1, V domains shown)
VH: QVQLVQSGGQMKKPGESMRISCRASGYEFIDCTLNWIRLAPGKRPEWMGWLKPRGGAVNYARPLQGRVTMTRDVYSDTAFLELRSLTVDDTAVYFCTRGKNCDYNWDFEHWGRGTPVIVSS
VL: EIVLTQSPGTLSLSPGETAIISCRTSQYGSLAWYQQRPGQAPRLVIYSGSTRAAGIPDRFSGSRWGPDYNLTISNLESGDFGVYYCQQYEFFGQGTKVQVDI
modifications: payload-linker LB conjugated to lysines; sites and chain not stated; payload-linker LB (long linker payload B, succinimidyl ester) conjugated to lysines; sites and chain not stated; MS DAR 3.8
[1]
  IC50 (N = 1), pseudotyped virus (PSV) infection, luciferase: 0.526 µg/mL and ~3.4 nM
  IC50 (N = 2), pseudotyped virus (PSV) infection, luciferase: ~1.9 nM

B5: VRC01 broadly neutralizing antibody (antibody, human IgG1, V domains shown)
VH: QVQLVQSGGQMKKPGESMRISCRASGYEFIDCTLNWIRLAPGKRPEWMGWLKPRGGAVNYARPLQGRVTMTRDVYSDTAFLELRSLTVDDTAVYFCTRGKNCDYNWDFEHWGRGTPVIVSS
VL: EIVLTQSPGTLSLSPGETAIISCRTSQYGSLAWYQQRPGQAPRLVIYSGSTRAAGIPDRFSGSRWGPDYNLTISNLESGDFGVYYCQQYEFFGQGTKVQVDI
[1]
  IC50 (N = 1), pseudotyped virus (PSV) infection, luciferase: ~667 nM
  IC50 (N = 2), pseudotyped virus (PSV) infection, luciferase: ~667 nM

B6: VRC01-LA antibody-drug conjugate (antibody, human IgG1, V domains shown)
VH: QVQLVQSGGQMKKPGESMRISCRASGYEFIDCTLNWIRLAPGKRPEWMGWLKPRGGAVNYARPLQGRVTMTRDVYSDTAFLELRSLTVDDTAVYFCTRGKNCDYNWDFEHWGRGTPVIVSS
VL: EIVLTQSPGTLSLSPGETAIISCRTSQYGSLAWYQQRPGQAPRLVIYSGSTRAAGIPDRFSGSRWGPDYNLTISNLESGDFGVYYCQQYEFFGQGTKVQVDI
modifications: payload-linker LA conjugated to lysines; sites and chain not stated; payload-linker LA (long linker payload A, succinimidyl ester) conjugated to lysines; sites and chain not stated; MS DAR 3.4
[1]
  IC50 (N = 1), pseudotyped virus (PSV) infection, luciferase: 0.0753 µg/mL and ~0.5 nM
  IC50 (N = 2), pseudotyped virus (PSV) infection, luciferase: 0.0413 µg/mL and ~0.27 nM

B7: VRC01-SB antibody-drug conjugate (antibody, human IgG1, V domains shown)
VH: QVQLVQSGGQMKKPGESMRISCRASGYEFIDCTLNWIRLAPGKRPEWMGWLKPRGGAVNYARPLQGRVTMTRDVYSDTAFLELRSLTVDDTAVYFCTRGKNCDYNWDFEHWGRGTPVIVSS
VL: EIVLTQSPGTLSLSPGETAIISCRTSQYGSLAWYQQRPGQAPRLVIYSGSTRAAGIPDRFSGSRWGPDYNLTISNLESGDFGVYYCQQYEFFGQGTKVQVDI
modifications: payload-linker SB conjugated to lysines; sites and chain not stated; payload-linker SB (short linker payload B, succinimidyl ester) conjugated to lysines; sites and chain not stated; MS DAR 3.9
[1]
  IC50 (N = 1), pseudotyped virus (PSV) infection, luciferase: 0.617 µg/mL and ~4 nM
  IC50 (N = 2), pseudotyped virus (PSV) infection, luciferase: 0.772 µg/mL
